Publication PMC6751697

Target: fluorescein-labeled 16-mer Pogo Ligase peptide (FAM-PL)
Assay: fluorescence polarisation

Sequence of recombinant (His)6-PCNA protein (proliferating cell nuclear antigen) (P12004 whole entry): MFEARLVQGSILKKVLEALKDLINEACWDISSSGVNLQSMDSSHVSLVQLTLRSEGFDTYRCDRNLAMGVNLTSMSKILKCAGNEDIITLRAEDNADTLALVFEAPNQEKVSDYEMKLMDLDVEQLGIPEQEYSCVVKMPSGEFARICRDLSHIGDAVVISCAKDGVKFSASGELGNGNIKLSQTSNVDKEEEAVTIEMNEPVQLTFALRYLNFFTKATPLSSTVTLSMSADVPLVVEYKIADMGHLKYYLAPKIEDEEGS

percent of peptide bound (5 nM FAM-PL, 1 uM PCNA): > 80%
Substance: recombinant (His)6-PCNA protein (proliferating cell nuclear antigen) (from UniProt P12004 1-261) (natural protein)
